Reference: the nanobody polyreactivity screen of Harvey et al. (2022)

Test: yeast display, Sf9 membrane polyspecificity reagent, FACS + sequencing; frameworks hold sequencing errors
Summary of the method: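 Genes from sorted yeast were amplified by colony PCR, read by MiSeq 2 × 250 sequencing and filtered on CDR length. These cells carried a synthetic nanobody library in Saccharomyces cerevisiae BJ5465 and were sorted by FACS into low and high (top ~1%) gates on anti-HA and streptavidin fluorescence. Polyreactivity is labelled according to the gate of origin.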

| Sequence | polyreactivity (PSR sort gate) |
| --- | --- |
| QVQLVESGGGLVQAGRSLRLSCAASGSIFTYYAMGWYRQAPGKERELVAAINWSDSSTYNADSVKGRFTISRDNAKNTVYLQMNSLKPEDTAVYDCAATNYADGDYWGQGTQVTVSS | low polyreactivity |
| QVQLVESGGGLVQAVGSLRLSCAASGLTFYSNAMGWYRQAPGTERELVATISQDGGRTYADSVKGLFTISRDNAKNTVYFQMNSLKPEDTAVYYCAADYSGNYDFGYWGQGNQVTVSS | low polyreactivity |
| QVQLVESGGGLVQAGGSLRLSCSACGFIFPSYVMGWYRQAPGKERELVATISRSGGSTYYADSVKGRFTISRDNAKNTVYLQMNSLKPEDTAVYYCATRRRCRYSPYSPYDYWGQGTQVTVTS | high polyreactivity |
| QVQLVESGGGLVQAGGSLRLSCAASGSTFQTYVMGWYRQAPGKERELVAAISSGGSTNYADSVKGRFTISRDNAKNTVYLQMNSLKPEDTAVYYCAKRWPYFRRGKDGYWGQGTQVTVSS | low polyreactivity |
| QLQLVESGGGLVQAGGSLRLSCAASGSTFSPYAMGWYRQAPGKERDLVAGITSSGGDTYYADSVKGRFTISRDNAKNTVYLQMNSLKPEDSAVYYCAADWWVLGQLWFDYWGQGTQVTVSS | low polyreactivity |
| QVQLVESGGGLVQAGGSLRLSCAASASIYFPYTMGWYRQAPGKERELVARISLGGGRTYYADSVKGRFTISRDNAKNTVYLQMNSLKPEDTAVYYCAAVYYYGKWSYGYWIYEYWGQGTQVTVSS | high polyreactivity |
| QVQLVESGGGLVQAGGSLRLSCAASGRTFRYYSMGWYRQAPGKERELVAAITGSGARTYYADSVKGRFTISRDNAKNTVYLQMNSLKPEDTAVYYCAADSLFYDDRYDYWGQGTQVTVSS | high polyreactivity |
| QVQLVESVGGLVQAGGSLRLSCAASGFTIYPYAMGWYRQAPGKERELVAAISSSGGNTYYADSVKGRFTISRDNAKNTVYLQMNSLKPEDTAVYYCNARVYRWAIAPDDDSWGQGTQVTVSS | high polyreactivity |
| QVQLVESGGGLVQAGGSLRLSCAASGITFGANTMGWYRQAPGKERELVADITVTGDGTYYADSVKGRFTISRDNAKNTVYLQMNSLKPEDTAVYYCAADFWLVSFQWDFEYDYWGQGTQVTVSS | low polyreactivity |
| QVQLVESGGGLVQAGGSLSLSCAASGSTFYRYAKGWYRQAPGKERELVAAISTRGGSTYYADSVKGRFTISRDNAKNTVYLQMNSLKPEDTAVYYCAAKSGSPDDYDYWGHGTQVTVSS | high polyreactivity |
| QVQLVESGGGLVQAGGSLRLSCAASGLTFDTYAMGWYRQAPGKERELVAAISICGRTNYADSVKGRFTISRDNAKNTVYLQMNSLKPQDTAVYYCAVGAVVPGRRRRTYYYWGQGTQVTVSS | high polyreactivity |
| QVQLVETGGGIVQAGGRLRLSCAASGFTFYANTMGWYRQAPGKERELVATIRSTGSTKYADSVKGRFTISRDNAMNTVYLQMNSLNPEDTAVYYCAKRDRYYGVAVEGIRYDYWGQGTQVTVSS | high polyreactivity |
| QVHLVESGGGLVQAGCSLRLSSSASGFTFVRNAMGWYRQAPGKERELVAAISKSGGRTYYTDSVKGRFTISRDNAKNSVYLHLNSLIPEDTAVYYCASDPVSDYYGYGYWGQGTQVTVSS | high polyreactivity |
| QVQLVESGGGLVQAGGSLRLSCAASGIIIGNNAMGWYRQAPGKERELVAAISRRGGSTYYADSVKGRFTISRDNAKNTVYLQMNSLKPEDTAVYYCAADIYRYNSYDYWGQGTQVTVSS | low polyreactivity |
| QVQLVESGGGLVQAGGSLRLSCAASGFTFRYYTMGWYRQAPGKERELVARITTGGSTYYADPVKGRFTISRDNAKKTVYLQMNSLKPEDTAVYFCAARLSRWWPPTGVHYTDRYYWGQGTQVTVSS | high polyreactivity |
| QVQLVESGGGLVQAGGSLRLSCAAYGFTFKYYVMGWYRQAPGKERELVASISKRGGSTRYADSVKGRFTISRDNAKNTVYLQMNSLKPEDTAVYYCAAAFVRPPPYVGYSRFYYWGQGTQVTVSS | high polyreactivity |
| QVQLVESGGGLVQAGGSLRLSCAASGLIFSWNAMGWYRQAPGKEWELVASISYSGGRTYYADSVKGRFTISRDNAKNTVYLQKNSLKPEDTAVYYCAADTNATTDPQMDYWGQGTQVTVSS | low polyreactivity |
| QVQLVESGGGLVQAGGSLRLSCAASGSTFGSYAMGWYRQAPGKERELVAGISWSGGRTYYADSVKGRFTISRDNAKNTVYLQMNSLKPEDTAVYYRARDTGYYYARYNYWGQGTQVTVSS | low polyreactivity |
| QVQLVESGGGLDQAGGSLRLSCAASGRTIRYYTMGWYRQAPGTERELVATIRRGGTTYYADSVKGRFTISRDNAKNTVYLQMNSLKPEDTAVYYCAKESLYQYDYWGQGTQVTVSS | low polyreactivity |
| QVQLVESGGGLVQAGGSLRLSCAASGSTFSGNAMGWYRQAPGKERELVAAISWSGDTTYYADSVKGRFTISRDNAKNTVYLQMNSLKPEDTAVYYCAVRYYWRRMNYWGQGTQVTVSS | high polyreactivity |
| QVQLVESGGGLVQAGGSLRLSCAASGRTFSGNAMGWYRQAPGKERELVAAITSGSSTYYADSVKGRFTISRDNAKNTVYLQMNSLKPEDTAVYYCAARSVYGSSFLSYGYWGQGTQVTVSS | high polyreactivity |
| QVQLVESGGGLVQAGGSLRLSCAASGITSFFYDMGWYRQAPGKERELVAGISSGGSTNYADSVKGRFTISRDNAKNTVYLQMNSLKPEDTAVSYCAKDYPHTVSLGEYDYWGQGTQVTVSS | high polyreactivity |

| Sequence | polyreactivity (PSR sort gate) |
| --- | --- |
| QVQLVESGGGLVQAGGSLRLSCAASGSTFGPYAMGWYRQAPGKERELVATINSSGSTNYADSVKGRFTISRDNAKNTVYLQMNSLKPEDTAVYYCATLHYYYWYDYWGQGTQVTVSS | low polyreactivity |
| QVQLVESGGGLVQAGGSLRLSCAASGNIFLYYTMGWYRQAPGKERELVAGITSGGSTYYADSVKGRFTISRDNAKNTVSLQMNSLKPEDTAVYYCAATYYPNFYRYYYWGQGTQVTVSS | low polyreactivity |
| QVQLVESGGGLVQAGGSLRLSCAASGRIFTHNAMGWYRQAHGKERELVAAISYSGVSTYYADSVKGRFTISRDNAKNTVYLQMNSLIPEDTAVYYCARRYWYPDAFYRYDYWGQGTQGTVSS | low polyreactivity |
| QVQLVESGGGLVQAGGSLRIICAASGSIFARNAMGWYRQAPGKERELVASITWSGASTYDADSVKGRFTISRDNAMNTVYLQMNSLKPEDTAVYYCAATDQILSLDYSSYEYLGQGTQVTVSS | low polyreactivity |
| QVQLVESGGGLVQAGGSLRLSCAASGSTFRYYAMGWYRQAPGKERELVASITSTGSTNYADSVKGRFTISRDNAKNTVYLQMNSLKPEDTAVYYCAAYRPYFGIAYGYWGQGTQVTVSS | high polyreactivity |
| QVLLVESGGGLVQAGGSLRLSCAASGIIFYRNAMGWYRQAPGKERELVAVITASGGHTYYADSVKGRFTISRDNAKNTVYLQMNSLKPEDTAVYYCNRELTSPRRWHVSRADDYWGQGTQVTVSS | low polyreactivity |
| QVQLVESGGGLVQAGGSLRLSCAASGSTFPYYGMGWYRQAPGKERDLVAVISRRGTGTYYADSVKGRFTISRDNAKNTVYLQMNSLKPEDTAVYYCNTDTHGPGPTFDHYDYWGQGTQVTVSS | low polyreactivity |
| QVQLVESGGGLIQAGGSLRLSCAASGIIFYPYTMGWYRPAPGKERELVAAIRQSGTSTYYADSVKGRFTISRDNAKKTVYFQMNSLKPEDTAVYYCNADDHIYWRKGYDYWGQGTQVTVSS | low polyreactivity |
| QVQLVESGGGLVQAGGSLRLSCAASGRIFSPYAMGWYRQAPGKERELVAAITSSGGSTYYADSVKGRFTISRDNAKNTVYLQMNSLKPEDTAVYYCNARRGRYTPSVNYWGQGTQVTVSS | high polyreactivity |
| QVQLVESGGGLVQAGGSLRLSCAASGRIFYVYTMGWYRQAPGKERELVASIRRSGGSTYYADSVKGRFTISRDNAKNTVYLQMNSLKPEDTAVYYCAARYNSAANDKRYYYWGQGTQVTVSS | high polyreactivity |
| QVQLVESGGGLVQAGGSLRLSCAASGRTFAYNAMGWYRQAPGKERELVAAISGNGGRTYYADSVKGRFTISRDNAKNTVYLQMNSLKPEDTAVYYCNAAVGYYSYSYYTKVGVDYWGQGTQVTVSS | high polyreactivity |
| QVQLVETGGGLVQAGGSLRLSCAASGRTFTGNAMGWYRQEPGKERELVADISSDGSTNYADSVKGRFTISRDNAKNTVYLQMNSLKPEDTAVYYCAADPFWTYYIDYDYWGQGTQVTVSS | low polyreactivity |
| QVQLVESGGGLVQAGGSLRLSCAASGRIFWGYAMGWYRQAPGKERELVAGITSGGITNYADSVKGRFTISRDNAKNTVYLQMNSLKPEDTAVYYCNKDFWGYPRVRYYYWGQGTQVNVSS | high polyreactivity |
| QVQLVESGRGLVQAGASLRLSCAASGRTFPYYARGRYRQAPGKERELVAAITTGGSTNYADSVKGRFTISRDNAKNTVYLQMNRLKPEDTAVYYCAKRFYRSRLNYYYWGQGTQVTVSS | high polyreactivity |
| QVQLVESGGGLVQEGGSLRLSCAASGFIFKHYAMGWYRQAPGKEMELVAAISGGGSTNYADSVKGRFTISRDNAKNTVYLQMNSLKPEDSAVYYCAARSRSLGYGYWGQGTHVTVSS | low polyreactivity |
| QVQLVESGGGLVQAGGSLRLSCAASGRSSTRNAMGWYRQAPGKERELVAAITRSGGGTYYADSVKGRFTISRDNAKNTVYLQMNSLKPEDTAVYYCAADQLSPSDGYEYWGQGTQVTVSS | low polyreactivity |
| QVQLVESGGGLVQAGGSLRLSCAASGRIFKQYTMGWYRQAPGKERELVAAITSSGAGTFYADSVKGRFTISRDNAKNTVYLQMNSLKPEDTAVDYCAAAYYYASRMDYWGQGTQVTVSS | high polyreactivity |
| QVQHVESGGGLVQAGGSLRLSCAASGRTFEVFAMGWYRQAPRKERELVATITYSGGITYYADSVKGRFTISRDKAKNTVYLQMNSLKPEDTAVYYPIGVGGDYDYCGQGTQVTVSS | low polyreactivity |
| QVQLVESGGGLVQAGGSLRLRCAASVRTFYTYAMGWYRQAPGKERELVAAISKRGTSTYYADSVKGRFTISRDNAKNTDYFQMNSLKPQDTAVYYCAAAVYQRARYYWGQGTQVTVSS | high polyreactivity |
| QVQLQESGGVQVQAGGSLRLSCAASGYISTHYFMGWYRQAPGKDREFVAGISNGSITNYADSVKGRFTISRDNARNTVYLQMNSLKPEDTAVYYGAAYEWTYVRFGYWGQGTLVTVSS | high polyreactivity |
| QVQLVESGGGLDQAGGSLRLSCAASGSTFDVYAMGRYRQAPGKVRELVAAISRSGGSTYYADSVKGRFTISRDYAKNNVYLQMYSLKPEDTAVYYCNARLARWGSYEYNYWGQGTQVTVSS | low polyreactivity |
